Paper PMC9482650, “Quantitative fragmentomics allow affinity mapping of interactomes” (Nature Communications, 2022)

What was measured:
Assay in all cases: holdup assay
Set-up in all cases: key: below the threshold = too weak to quantify, mostly under pKd 3.1 to 4
TIAM2, Q8IVF5 = molecular target: T1, TIAM2, Q8IVF5
T1 sequence (Q8IVF5 885-986, limits assumed, looked up): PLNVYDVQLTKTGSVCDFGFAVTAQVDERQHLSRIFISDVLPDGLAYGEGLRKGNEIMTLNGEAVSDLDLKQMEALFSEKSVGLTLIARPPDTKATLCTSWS

MPDZ_10, O75970 = molecular target: T2, MPDZ_10, O75970
T2 sequence (O75970 1624-1722, limits assumed, looked up): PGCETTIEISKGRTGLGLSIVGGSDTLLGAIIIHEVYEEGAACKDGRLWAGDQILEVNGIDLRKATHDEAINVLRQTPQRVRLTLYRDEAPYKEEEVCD

HTRA2, O43464 = molecular target: HTRA2, O43464
TJP1_3, Q07157 = molecular target: TJP1_3, Q07157
DLG1_3, Q12959 = molecular target: DLG1_3, Q12959
CASK, O14936 = molecular target: CASK, O14936
PDZRN4_1, Q6ZMN7 = molecular target: PDZRN4_1, Q6ZMN7
FRMPD4, Q14CM0 = molecular target: FRMPD4, Q14CM0
PDZD2_2, O15018 = molecular target: T3, PDZD2_2, O15018
T3 sequence (O15018 329-429, limits assumed, looked up): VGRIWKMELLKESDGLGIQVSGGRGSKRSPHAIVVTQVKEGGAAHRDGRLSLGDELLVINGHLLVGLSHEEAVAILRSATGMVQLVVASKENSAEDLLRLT

LIN7B, Q9HAP6 = molecular target: T4, LIN7B, Q9HAP6
T4 sequence (Q9HAP6 88-185, limits assumed, looked up): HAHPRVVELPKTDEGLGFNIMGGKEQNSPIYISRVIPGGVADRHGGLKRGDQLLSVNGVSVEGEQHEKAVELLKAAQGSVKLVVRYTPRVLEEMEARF

PDLIM1, O00151 = molecular target: PDLIM1, O00151
Inadl_1, Q8NI35 = molecular target: Inadl_1, Q8NI35
GOPC, Q9HD26 = molecular target: GOPC, Q9HD26
NHERF4_4, Q86UT5 = molecular target: NHERF4_4, Q86UT5
MAST2, Q6P0Q8 = molecular target: MAST2, Q6P0Q8
GRIP1_4, Q9Y3R0 = molecular target: T5, GRIP1_4, Q9Y3R0
T5 sequence (Q9Y3R0 467-571, limits assumed, looked up): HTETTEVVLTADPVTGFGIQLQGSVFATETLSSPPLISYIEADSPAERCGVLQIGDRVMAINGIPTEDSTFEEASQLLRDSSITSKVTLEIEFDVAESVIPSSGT

APBA1_1, Q02410 = molecular target: T6, APBA1_1, Q02410
T6 sequence (Q02410 651-752, limits assumed, looked up): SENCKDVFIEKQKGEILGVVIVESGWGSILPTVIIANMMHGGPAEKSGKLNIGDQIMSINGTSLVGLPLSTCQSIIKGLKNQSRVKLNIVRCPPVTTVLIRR

APBA3_1, O96018 = molecular target: T7, APBA3_1, O96018
T7 sequence (O96018 389-490, limits assumed, looked up): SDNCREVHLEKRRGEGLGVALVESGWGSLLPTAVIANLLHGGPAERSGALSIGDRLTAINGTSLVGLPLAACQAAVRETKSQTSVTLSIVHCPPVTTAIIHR

GRIP2_6, Q9C0E4 = molecular target: GRIP2_6, Q9C0E4
DFNB31_3, Q9P202 = molecular target: T8, DFNB31_3, Q9P202
T8 sequence (Q9P202 811-907, limits assumed, looked up): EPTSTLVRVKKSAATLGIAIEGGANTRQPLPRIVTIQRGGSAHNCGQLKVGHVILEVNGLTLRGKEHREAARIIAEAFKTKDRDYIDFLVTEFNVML

LRRC7, Q96NW7 = molecular target: T9, LRRC7, Q96NW7
T9 sequence (Q96NW7 1440-1537, limits assumed, looked up): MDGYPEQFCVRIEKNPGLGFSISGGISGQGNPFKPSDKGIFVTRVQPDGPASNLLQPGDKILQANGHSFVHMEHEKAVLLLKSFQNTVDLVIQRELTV

NHERF3_3, Q5T2W1 = molecular target: T10, NHERF3_3, Q5T2W1
T10 sequence (Q5T2W1 238-333, limits assumed, looked up): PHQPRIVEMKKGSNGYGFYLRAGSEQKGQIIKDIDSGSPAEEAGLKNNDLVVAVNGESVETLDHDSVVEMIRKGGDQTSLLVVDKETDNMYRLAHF

SIPA1L2, Q9P2F8 = molecular target: T11, SIPA1L2, Q9P2F8
T11 sequence (Q9P2F8 945-1036, limits assumed, looked up): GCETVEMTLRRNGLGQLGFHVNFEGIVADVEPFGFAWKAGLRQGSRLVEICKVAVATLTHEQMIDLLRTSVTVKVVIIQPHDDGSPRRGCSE

IL16_4, Q14005 = molecular target: IL16_4, Q14005
Inadl_6, Q8NI35 = molecular target: Inadl_6, Q8NI35
DLG4_2, P78352 = molecular target: DLG4_2, P78352
[1] = plain residues with an end cap or a label only (N-terminal biotin on a linker: ttds)
[2] = plain residues with an end cap or a label only (N-terminal biotin on a linker: ahx)
[3] = plain residues with an end cap or a label only (N-terminal biotin on a linker: ado-ado)

Measured: pKd

Sequence of PDZRN4_1, Q6ZMN7 (Q6ZMN7 213-318): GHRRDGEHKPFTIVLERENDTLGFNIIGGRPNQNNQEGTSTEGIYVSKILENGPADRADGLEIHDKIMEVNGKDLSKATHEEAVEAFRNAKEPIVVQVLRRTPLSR
Sequence of MAST2, Q6P0Q8 (Q6P0Q8 1099-1202): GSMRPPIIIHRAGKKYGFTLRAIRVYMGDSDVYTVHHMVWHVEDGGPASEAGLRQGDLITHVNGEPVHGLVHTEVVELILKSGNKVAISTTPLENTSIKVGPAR
Sequence of DLG4_2, P78352 (P78352 155-259): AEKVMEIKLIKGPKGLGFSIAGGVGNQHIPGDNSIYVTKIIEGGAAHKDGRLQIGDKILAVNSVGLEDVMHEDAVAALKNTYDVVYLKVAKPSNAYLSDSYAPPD
Sequence of CASK, O14936 (O14936 487-570): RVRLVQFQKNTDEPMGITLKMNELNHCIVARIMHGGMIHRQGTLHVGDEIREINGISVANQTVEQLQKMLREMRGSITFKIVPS
Sequence of FRMPD4, Q14CM0 (Q14CM0 67-160): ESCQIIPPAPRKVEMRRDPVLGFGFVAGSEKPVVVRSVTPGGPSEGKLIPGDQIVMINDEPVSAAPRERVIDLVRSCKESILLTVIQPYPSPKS
Sequence of Inadl_6, Q8NI35 (Q8NI35 1058-1167): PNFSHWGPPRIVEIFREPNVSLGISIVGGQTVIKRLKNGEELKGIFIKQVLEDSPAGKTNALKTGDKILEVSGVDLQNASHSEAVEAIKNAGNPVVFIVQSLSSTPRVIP
Sequence of PDLIM1, O00151 (O00151 1-87): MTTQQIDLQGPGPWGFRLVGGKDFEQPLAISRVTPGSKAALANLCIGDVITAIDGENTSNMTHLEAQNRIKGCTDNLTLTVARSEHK
Sequence of IL16_4, Q14005 (Q14005 1229-1329): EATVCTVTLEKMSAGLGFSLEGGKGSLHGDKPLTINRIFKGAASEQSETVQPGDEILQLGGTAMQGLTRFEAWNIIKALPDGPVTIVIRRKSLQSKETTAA
Sequence of HTRA2, O43464 (O43464 355-458): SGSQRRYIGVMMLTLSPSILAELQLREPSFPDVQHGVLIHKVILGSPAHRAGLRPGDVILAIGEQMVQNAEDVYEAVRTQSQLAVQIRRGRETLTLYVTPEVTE
Sequence of DLG1_3, Q12959 (Q12959 457-571): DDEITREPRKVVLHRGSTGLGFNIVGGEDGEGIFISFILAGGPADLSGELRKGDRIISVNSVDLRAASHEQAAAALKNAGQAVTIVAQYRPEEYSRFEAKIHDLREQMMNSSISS
Sequence of TJP1_3, Q07157 (Q07157 416-512): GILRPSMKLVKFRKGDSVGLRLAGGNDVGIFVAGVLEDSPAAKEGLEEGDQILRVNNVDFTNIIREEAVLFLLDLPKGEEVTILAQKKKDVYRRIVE
Sequence of Inadl_1, Q8NI35 (Q8NI35 113-229): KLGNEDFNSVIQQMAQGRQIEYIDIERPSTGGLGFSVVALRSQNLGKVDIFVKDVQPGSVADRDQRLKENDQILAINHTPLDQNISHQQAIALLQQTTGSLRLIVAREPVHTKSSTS
Sequence of GRIP2_6, Q9C0E4 (Q9C0E4 648-740): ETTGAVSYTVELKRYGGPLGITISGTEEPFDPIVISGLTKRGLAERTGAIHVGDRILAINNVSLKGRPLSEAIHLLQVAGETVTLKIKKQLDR
Sequence of NHERF4_4, Q86UT5 (Q86UT5 464-550): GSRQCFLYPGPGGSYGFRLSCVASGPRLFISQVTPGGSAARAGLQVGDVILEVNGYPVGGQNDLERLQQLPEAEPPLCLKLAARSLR

KQVVPFSSSV [GDA, Q9Y2T3]
below the threshold: TIAM2, Q8IVF5; [1] | HTRA2, O43464; [1] | TJP1_3, Q07157; [1] | DLG1_3, Q12959; [1] | CASK, O14936; [1] | FRMPD4, Q14CM0; [1] | LIN7B, Q9HAP6; [1] | PDLIM1, O00151; [1] | Inadl_1, Q8NI35; [1] | NHERF4_4, Q86UT5; [1] | GRIP1_4, Q9Y3R0; [1] | APBA1_1, Q02410; [1] | APBA3_1, O96018; [1] | GRIP2_6, Q9C0E4; [1] | DFNB31_3, Q9P202; [1] | LRRC7, Q96NW7; [1] | NHERF3_3, Q5T2W1; [1] | SIPA1L2, Q9P2F8; [1] | IL16_4, Q14005; [1] | Inadl_6, Q8NI35; [1]
4.42: DLG4_2, P78352; [1]
3.65: GOPC, Q9HD26; [1]
3.93: MPDZ_10, O75970; [1]
3.49: PDZRN4_1, Q6ZMN7; [1]
4.93: PDZD2_2, O15018; [1]
4.83: MAST2, Q6P0Q8; [1]

KDECVIATEV [DLL1, O00548]
3.48: MPDZ_10, O75970; [2]
5.17: MAST2, Q6P0Q8; [2]
below the threshold: TIAM2, Q8IVF5; [2] | HTRA2, O43464; [2] | TJP1_3, Q07157; [2] | DLG1_3, Q12959; [2] | CASK, O14936; [2] | PDZRN4_1, Q6ZMN7; [2] | FRMPD4, Q14CM0; [2] | LIN7B, Q9HAP6; [2] | PDLIM1, O00151; [2] | Inadl_1, Q8NI35; [2] | GOPC, Q9HD26; [2] | NHERF4_4, Q86UT5; [2] | GRIP1_4, Q9Y3R0; [2] | APBA1_1, Q02410; [2] | APBA3_1, O96018; [2] | GRIP2_6, Q9C0E4; [2] | DFNB31_3, Q9P202; [2] | LRRC7, Q96NW7; [2] | NHERF3_3, Q5T2W1; [2] | SIPA1L2, Q9P2F8; [2] | IL16_4, Q14005; [2] | Inadl_6, Q8NI35; [2]
4.39: DLG4_2, P78352; [2]
4.51: PDZD2_2, O15018; [2]

PDSYHRRDFW [U2AF2, P26368]
3.89: PDZRN4_1, Q6ZMN7; [3]
3.68: IL16_4, Q14005; [3]
below the threshold: TIAM2, Q8IVF5; [3] | MPDZ_10, O75970; [3] | HTRA2, O43464; [3] | TJP1_3, Q07157; [3] | CASK, O14936; [3] | PDZD2_2, O15018; [3] | LIN7B, Q9HAP6; [3] | PDLIM1, O00151; [3] | Inadl_1, Q8NI35; [3] | NHERF4_4, Q86UT5; [3] | MAST2, Q6P0Q8; [3] | GRIP1_4, Q9Y3R0; [3] | APBA1_1, Q02410; [3] | APBA3_1, O96018; [3] | GRIP2_6, Q9C0E4; [3] | DFNB31_3, Q9P202; [3] | LRRC7, Q96NW7; [3] | NHERF3_3, Q5T2W1; [3] | SIPA1L2, Q9P2F8; [3] | Inadl_6, Q8NI35; [3] | DLG4_2, P78352; [3]
3.71: FRMPD4, Q14CM0; [3]
3.6: GOPC, Q9HD26; [3]
3.72: DLG1_3, Q12959; [3]

AKPQPVDSWV [ARVCF, O00192]
3.68: HTRA2, O43464; [2]
4.81: DLG4_2, P78352; [2]
5.95: PDZD2_2, O15018; [2]
4.33: Inadl_6, Q8NI35; [2]
3.63: PDZRN4_1, Q6ZMN7; [2]
3.55: PDLIM1, O00151; [2]
3.86: MAST2, Q6P0Q8; [2]
3.62: TJP1_3, Q07157; [2]
4.94: LRRC7, Q96NW7; [2]
below the threshold: TIAM2, Q8IVF5; [2] | MPDZ_10, O75970; [2] | DLG1_3, Q12959; [2] | CASK, O14936; [2] | FRMPD4, Q14CM0; [2] | LIN7B, Q9HAP6; [2] | Inadl_1, Q8NI35; [2] | GOPC, Q9HD26; [2] | NHERF4_4, Q86UT5; [2] | GRIP1_4, Q9Y3R0; [2] | APBA1_1, Q02410; [2] | APBA3_1, O96018; [2] | GRIP2_6, Q9C0E4; [2] | DFNB31_3, Q9P202; [2] | NHERF3_3, Q5T2W1; [2] | SIPA1L2, Q9P2F8; [2] | IL16_4, Q14005; [2]

NPDALPETLV [ARHGAP6, O43182]
4.3: Inadl_6, Q8NI35; [1]
3.77: LIN7B, Q9HAP6; [1]
4.12: PDZD2_2, O15018; [1]
4.11: PDZRN4_1, Q6ZMN7; [1]
4.1: DFNB31_3, Q9P202; [1]
4.14: GOPC, Q9HD26; [1]
4.42: DLG4_2, P78352; [1]
3.5: DLG1_3, Q12959; [1]
4.65: MAST2, Q6P0Q8; [1]
below the threshold: TIAM2, Q8IVF5; [1] | MPDZ_10, O75970; [1] | HTRA2, O43464; [1] | TJP1_3, Q07157; [1] | CASK, O14936; [1] | FRMPD4, Q14CM0; [1] | PDLIM1, O00151; [1] | Inadl_1, Q8NI35; [1] | NHERF4_4, Q86UT5; [1] | GRIP1_4, Q9Y3R0; [1] | APBA1_1, Q02410; [1] | APBA3_1, O96018; [1] | GRIP2_6, Q9C0E4; [1] | LRRC7, Q96NW7; [1] | NHERF3_3, Q5T2W1; [1] | SIPA1L2, Q9P2F8; [1] | IL16_4, Q14005; [1]
